In the supplement of paper PMC9732359:
± gives the uncertainty stated by the source.

Experiment: protein stability index of a GFP-peptide fusion (yeast GPS) (PSI 1-4); higher = more stable; sorted into four equal gates, so the index is relative within each strain
Summary of the method: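 For each peptide, the protein stability index sums the read frequency in every gate after multiplying it by the gate number. Read frequencies came from plasmids that were PCR-amplified from each gate and Illumina-sequenced, with reads assigned to strains by barcodes. The gates were four equal bins of GFP/Cherry fluorescence ratio applied to mid-log yeast in leucine-free medium carrying a pooled library of tiled 17-residue yeast protein peptides fused downstream of GFP on a Cherry-expressing plasmid.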

Row | Sequence | protein stability index (doa10∆) | protein stability index (pdr5∆) | protein stability index (san1∆) | protein stability index (ubr1∆)
1 | NMGSLLGLCLVIQIVTG [COB] | 2.67 ± 0.06 | 2.58 ± 0.053 | 2.59 ± 0.061 | 3 ± 0.034
2 | TPFSFGTANNNSNTTNQ [YJL041W/NSP1] | 3.25 ± 0.054 | 3.21 ± 0.045 | 3.13 ± 0.035 | 3.09 ± 0.041
3 | AHKLKKSLDSIPMSKTI [FAS2] | 3 ± 0.083 | 3.01 ± 0.078 | 3.01 ± 0.058 | 2.8 ± 0.083
4 | INYLALNAANYNIDANV [ECM29] |  | 2.76 ± 0.2 |  | 2.72 ± 0.13
5 | VVRRRFRGNISQPKIGY [RPL32] | 2.85 ± 0.096 | 2.88 ± 0.06 | 2.9 ± 0.067 | 2.92 ± 0.05
6 | DQVLNLCLTEFENCYLE [FAS1] | 3.15 ± 0.1 | 3.2 ± 0.099 | 3.18 ± 0.14 | 3.25 ± 0.048
7 | ESVPIYSIDEFFLQRKL [BRR2] | 3.44 ± 0.13 | 3.21 ± 0.062 | 2.96 ± 0.12 | 3.33 ± 0.057
8 | TASKIIVIDVDYNKKQD [MED1] | 2.21 ± 0.083 | 2.58 ± 0.081 | 2.17 ± 0.055 | 2.65 ± 0.065
9 | LDLKECYQFAEYLFKPQ [ARP7] | 3.05 ± 0.084 | 3.06 ± 0.08 | 3.03 ± 0.063 | 2.97 ± 0.059
10 | RGIPRISTLFQRDRHTL [PRP8] | 2.57 ± 0.095 | 2.66 ± 0.16 | 2.08 ± 0.079 | 2.68 ± 0.085
11 | SRKAHGLNAKQLYKARM [POP1] | 3.03 ± 0.094 | 3.4 ± 0.12 | 2.96 ± 0.05 | 2.83 ± 0.034
12 | CIPLVGISVPFHSTYLM [FAS1] | 1.43 ± 0.041 | 1.3 ± 0.04 | 1.27 ± 0.069 | 1.39 ± 0.027
13 | SLAILGMNLLSNLSQNV [SWI1] | 2.44 ± 0.055 | 2.94 ± 0.058 | 2.69 ± 0.052 | 2.81 ± 0.046
14 | APRQEISEEETTVKPLF [YAR002W/NUP60] | 3.22 ± 0.11 | 3.22 ± 0.11 | 3.23 ± 0.067 | 3.56 ± 0.17
15 | QEYLNPVIDTQIANEFN [YDL116W/NUP84] | 2.85 ± 0.053 | 2.96 ± 0.058 | 2.71 ± 0.046 | 2.88 ± 0.052
16 | SFGTANTNGTNASANST [YOR098C/NUP1] | 3.04 ± 0.11 | 3.02 ± 0.11 | 2.75 ± 0.15 | 2.85 ± 0.12
17 | ATRTLVASIQNDPSAEV [YCG1] |  | 3.41 ± 0.16 | 2.79 ± 0.27 | 
18 | DKITLHDEKTLAPSKHQ [SIR4] |  | 2.68 ± 0.16 | 2.44 ± 0.2 | 2.92 ± 0.19
19 | FLQPLLLVGLIKTFYWL [NUT1] | 1.8 ± 0.051 | 2.3 ± 0.062 | 1.5 ± 0.089 | 1.8 ± 0.051
20 | GGTSDMNYLLDNKINEI [CSI1] | 2.85 ± 0.11 | 2.87 ± 0.087 | 3.17 ± 0.059 | 3.25 ± 0.078
21 | ADVHFLDCDGGFIDASC [RRP45] | 3.12 ± 0.09 | 2.9 ± 0.098 | 3.14 ± 0.055 | 2.9 ± 0.054
22 | TELLDYATKLSKFTKIP [MED4] |  | 2.71 ± 0.23 | 2.98 ± 0.16 | 
23 | LKNEGIDLDHKRFLILQ [SMC4] | 2.21 ± 0.22 | 2.35 ± 0.13 | 2.15 ± 0.12 | 2.84 ± 0.068
24 | TAEAPTLSFNFSQKANK [YOR098C/NUP1] | 3.27 ± 0.081 | 3.27 ± 0.086 | 3.24 ± 0.056 | 3.26 ± 0.085
25 | APLKHGVGILYKGMASN [BRR2] | 1.93 ± 0.078 | 1.68 ± 0.076 | 1.38 ± 0.13 | 1.3 ± 0.11
26 | TKFNHNKEKSNSPTSFF [YOR098C/NUP1] | 2.78 ± 0.069 | 2.85 ± 0.066 | 2.66 ± 0.048 | 2.53 ± 0.051

Row | Sequence | protein stability index (doa10∆) | protein stability index (pdr5∆) | protein stability index (san1∆) | protein stability index (ubr1∆)
27 | DNSEYSRNGDFPRTRFE [RPN10] | 3.13 ± 0.2 | 3.12 ± 0.22 | 3.45 ± 0.16 | 3.49 ± 0.17
28 | ISSRTYGQRAVLKFAAH [RPS0B] | 1.78 ± 0.064 | 2.22 ± 0.095 | 2.26 ± 0.09 | 1.64 ± 0.069
29 | KEPVALIETVRQMKDVN [RPN2] | 3.36 ± 0.059 | 3.41 ± 0.067 | 3.15 ± 0.051 | 3.31 ± 0.041
30 | TDDADDHINWEHIKQDY [NSL1] | 3.4 ± 0.1 | 3.4 ± 0.12 | 3.27 ± 0.13 | 3.4 ± 0.082
31 | ENPAFLPGTNNNSNSNN [SEC65] | 3.12 ± 0.17 | 3.13 ± 0.24 | 2.69 ± 0.15 | 2.86 ± 0.067
32 | KSHKQTIVTGGGSGNGD [RPP1] | 3.15 ± 0.27 | 3.55 ± 0.15 |  | 3.44 ± 0.2
33 | SNSVFSPDGRNFQVEYA [PRE10] | 3.04 ± 0.057 | 2.91 ± 0.059 | 2.87 ± 0.049 | 2.79 ± 0.054
34 | HPFGHALVAGIERYPLK [RPL27A] | 2.53 ± 0.082 | 2.3 ± 0.098 | 2.49 ± 0.082 | 2.49 ± 0.062
35 | LLHEMTQTYMQMIELNR [GRR1] | 2.18 ± 0.072 | 2.11 ± 0.051 | 2.2 ± 0.088 | 1.68 ± 0.048
36 | NILALNLVSLLIIVTRK [YML031W/NDC1] | 1.92 ± 0.072 | 1.35 ± 0.044 | 1.2 ± 0.11 | 1.32 ± 0.039
37 | DWESDLHIHLNQILQTE [YDL116W/NUP84] | 2.69 ± 0.1 | 3.07 ± 0.087 | 2.77 ± 0.092 | 2.81 ± 0.15
38 | IKDSVREVGTKFTTVLA [ECM29] | 2.77 ± 0.084 | 2.6 ± 0.07 | 2.22 ± 0.078 | 2.42 ± 0.05
39 | AARKAANKEKRAIILER [RPL7A] | 1.19 ± 0.051 | 1.37 ± 0.058 | 1.14 ± 0.078 | 1.27 ± 0.14
40 | AMTIYWDDHTKKPLSMA [CDC53] | 2.87 ± 0.077 | 2.67 ± 0.091 | 2.69 ± 0.048 | 2.85 ± 0.062
41 | KNISSQLDSKLMVFNDD [YGR119C/NUP57] | 2.12 ± 0.041 | 2.54 ± 0.052 | 2.24 ± 0.056 | 2.08 ± 0.029
42 | DDDISDDEEDEIEENCL [RPN4] | 3.48 ± 0.1 | 3.27 ± 0.089 | 3.14 ± 0.08 | 3.32 ± 0.1
43 | SVLSSKPGSKPEKTSTE [SIR3] | 3.17 ± 0.12 | 2.7 ± 0.19 | 3.15 ± 0.078 | 3.2 ± 0.12
44 | IAEVGNKRWKVDIGGKQ [RRP4] | 3.62 ± 0.19 | 3.32 ± 0.14 | 3.22 ± 0.11 | 3.36 ± 0.061
45 | GNSEAIPGLSAGVNNDN [RTT102] | 3.21 ± 0.086 | 3.53 ± 0.082 | 3.39 ± 0.069 | 3.47 ± 0.084
46 | NQSTIYEDEELSRAEYD [LIN1] | 3.12 ± 0.086 | 3.2 ± 0.087 | 3.15 ± 0.058 | 3.27 ± 0.058
47 | MAQRTLKNKYESYDAAL [FAS2] | 3.147 ± 0.019 | 3.059 ± 0.017 | 2.999 ± 0.015 | 3.064 ± 0.012
48 | RIMSRNFYLKRFISDLL [SWI1] | 2.32 ± 0.058 | 2.37 ± 0.074 | 2.08 ± 0.095 | 1.54 ± 0.034
49 | RRRTYRAHGRINKYESS [RPL17A] | 1.87 ± 0.2 | 2.37 ± 0.094 | 1.9 ± 0.13 | 2.05 ± 0.065
50 | SDESIERLMTWKFKSLI [RRI2] | 2.26 ± 0.048 | 2.36 ± 0.042 | 2.11 ± 0.066 | 2.31 ± 0.031
51 | QTLLQRSEDPAGLGKTN [YGR119C/NUP57] | 3.31 ± 0.084 | 3.12 ± 0.11 | 3.27 ± 0.078 | 3.39 ± 0.091
